According to paper PMC1405823:

Test system: BsSSB (6xHis-tagged, as purified) (Bacillus subtilis)
Experiment: EMSA
Conditions: 100 mM Tris-HCl pH 7.5, 10 min at 37 °C, 12.5% native PAGE

Substance 50-base random sequence ssDNA has a binding signal (% probe shifted) of 50.
